Laboratory results taken from patent US20190010203A1 (ADEPTHERA, published 2019).
Non-standard residues stand in square brackets, D forms with d. No end group written: not given here. *: point of attachment. Palmitoyl = CCCCCCCCCCCCCCCC(=O)*; AEEEA = NCCOCCOCCOCC(=O)O

What was measured:
CLR/RAMP2 receptor = CLR/RAMP2 receptor (UniProt Q16602 23-461; O60895 43-175, limits assumed); assay: cell-based or functional assay
CLR/RAMP1 receptor = CLR/RAMP1 receptor (UniProt Q16602 23-461; O60894 27-148, limits assumed); assay: cell-based or functional assay
Sequence of CLR/RAMP1 receptor (Q16602 23-461 limits assumed, chain 1 of 2): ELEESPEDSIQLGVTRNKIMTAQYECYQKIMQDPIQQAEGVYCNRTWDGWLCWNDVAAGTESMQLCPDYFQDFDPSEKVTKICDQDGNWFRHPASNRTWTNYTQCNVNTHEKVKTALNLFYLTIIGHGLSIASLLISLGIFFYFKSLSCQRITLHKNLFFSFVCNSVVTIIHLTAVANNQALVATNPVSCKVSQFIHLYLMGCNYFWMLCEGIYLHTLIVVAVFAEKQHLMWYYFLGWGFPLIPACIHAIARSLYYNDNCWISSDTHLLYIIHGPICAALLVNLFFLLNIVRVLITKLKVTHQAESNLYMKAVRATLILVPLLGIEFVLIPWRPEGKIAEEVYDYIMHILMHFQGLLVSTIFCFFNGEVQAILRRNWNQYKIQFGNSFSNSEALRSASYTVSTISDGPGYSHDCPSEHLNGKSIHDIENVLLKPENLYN
Sequence of CLR/RAMP1 receptor (O60894 27-148 limits assumed, chain 2 of 2): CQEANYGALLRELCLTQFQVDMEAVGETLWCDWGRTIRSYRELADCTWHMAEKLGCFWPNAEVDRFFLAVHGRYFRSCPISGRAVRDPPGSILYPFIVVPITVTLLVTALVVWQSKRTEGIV

Sequence of CLR/RAMP2 receptor (Q16602 23-461 limits assumed, chain 1 of 2): as the sequence (Q16602 23-461 limits assumed, chain 1 of 2) above
Sequence of CLR/RAMP2 receptor (O60895 43-175 limits assumed, chain 2 of 2): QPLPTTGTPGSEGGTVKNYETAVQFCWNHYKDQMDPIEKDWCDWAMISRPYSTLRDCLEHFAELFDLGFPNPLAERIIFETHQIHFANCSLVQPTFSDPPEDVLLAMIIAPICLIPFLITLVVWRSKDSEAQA

Palmitoyl-KGCRFGTCTVQKLAHQIYQFTDKDAPVDPSSPHSY-NH2 (ends and bridges not checked) [SEQ ID NO: 110]
EC50 (nM), CLR/RAMP2 arrestin assay (CLR/RAMP2 receptor): 6.4 nM
EC50 (nM), CLR/RAMP1 cAMP assay (CLR/RAMP1 receptor): 43 nM

Palmitoyl-GCRFGTCTVQKLAHQIYQFTDKDKDNSAPVDPSSPHSY-NH2 (ends and bridges not checked) [SEQ ID NO: 45]
EC50 (nM), CLR/RAMP2 arrestin assay (CLR/RAMP2 receptor): 0.3 nM
EC50 (nM), CLR/RAMP1 cAMP assay (CLR/RAMP1 receptor): 0.1 nM

Ac-KGCRFGTCTVQKLAHQIYQFTDKDKDNSAPVDPSSPHSY-NH2 (ends and bridges not checked) [SEQ ID NO: 59]
EC50 (nM), CLR/RAMP2 arrestin assay (CLR/RAMP2 receptor): 18 nM
EC50 (nM), CLR/RAMP1 cAMP assay (CLR/RAMP1 receptor): 31 nM

B1: SEQ ID NO: 38 (peptide)
peptide: Palmitoyl-KTKKTLRTGCRFGTCTVQKLAHQIYQFTDKDKDNSAPVDPSSPHSY-NH2
modifications: not fully specified; printed as Pal-KTKKTLRTGCRFGTCTVQKLAHQIYQFTDKDKDNSAPVDPSSPHSY-NH2; ends and bridges not checked
EC50 (nM), CLR/RAMP2 arrestin assay (CLR/RAMP2 receptor): 0.7 nM
EC50 (nM), CLR/RAMP1 cAMP assay (CLR/RAMP1 receptor): 0.5 nM

miniPEG-K(Palmitoyl)GCRFGTCTVQKLAHQIYQFTDKDKDNVDPSSPHSY-NH2 (cysteine pairing not given here) [SEQ ID NO: 94]
Max Activity % of positive control, CLR/RAMP2 arrestin assay (CLR/RAMP2 receptor): 82 % of positive control
Max Activity % of positive control, CLR/RAMP1 cAMP assay (CLR/RAMP1 receptor): 67 % of positive control

miniPEG-K(Palmitoyl)GCRFGTCTVQKLAHQIYQFTDKDKSAPVDPSSPHSY-NH2 (ends and bridges not checked) [SEQ ID NO: 47]
EC50 (nM), CLR/RAMP2 arrestin assay (CLR/RAMP2 receptor): 0.4 nM
Max Activity % of positive control, CLR/RAMP2 arrestin assay (CLR/RAMP2 receptor): 64 % of positive control
Max Activity % of positive control, CLR/RAMP1 cAMP assay (CLR/RAMP1 receptor): 85 % of positive control

miniPEG-K(Palmitoyl)GCRFGTCTVQKLAHQIYQFTDKDKDNVAPVDPSSPHSY-NH2 (cysteine pairing not given here) [SEQ ID NO: 50]
Max Activity % of positive control, CLR/RAMP2 arrestin assay (CLR/RAMP2 receptor): 87 % of positive control
Max Activity % of positive control, CLR/RAMP1 cAMP assay (CLR/RAMP1 receptor): 65 % of positive control

[AEEEA]K(Palmitoyl)CRFGTCTVQKLAHQIYQFTDKDKDNSAPVDPSSPHSY-NH2 (ends and bridges not checked) [SEQ ID NO: 43]
EC50 (nM), CLR/RAMP2 arrestin assay (CLR/RAMP2 receptor): 0.2 nM
Max Activity % of positive control, CLR/RAMP2 arrestin assay (CLR/RAMP2 receptor): 30 % of positive control
EC50 (nM), CLR/RAMP1 cAMP assay (CLR/RAMP1 receptor): 0.5 nM
Max Activity % of positive control, CLR/RAMP1 cAMP assay (CLR/RAMP1 receptor): 39 % of positive control

B2: SEQ ID NO: 73 (peptide)
peptide: KGCRFGTCTVQKLAHQIYQFTDKDKDNVAPRSKISPQGY
modifications: N-terminal palmitoyl (Pal); palmitoyl on Lys 1 side chain, K(Pal); C-terminal amide
EC50 (nM), CLR/RAMP2 arrestin assay (CLR/RAMP2 receptor): 49 nM
EC50 (nM), CLR/RAMP1 cAMP assay (CLR/RAMP1 receptor): 34 nM

Palmitoyl-KGCRFGTCTVQKLAHQIYQFTPAGRQDSAPVDPSSPHSY-NH2 (ends and bridges not checked) [SEQ ID NO: 31]
EC50 (nM), CLR/RAMP2 arrestin assay (CLR/RAMP2 receptor): 0.9 nM
EC50 (nM), CLR/RAMP1 cAMP assay (CLR/RAMP1 receptor): 0.8 nM

Palmitoyl-KCRFGTCTVQKLAHQIYQFTDKDKDNSAPVDPSSPHSY-NH2 (ends and bridges not checked) [SEQ ID NO: 44]
EC50 (nM), CLR/RAMP2 arrestin assay (CLR/RAMP2 receptor): 0.2 nM
EC50 (nM), CLR/RAMP1 cAMP assay (CLR/RAMP1 receptor): 0.1 nM

B3: SEQ ID NO: 40 (peptide)
peptide: Palmitoyl-KTKKTLRTGCRFGTCTVQKLAHQIYQFTDKDKDNVAPVDPSSPHSY-NH2
modifications: not fully specified; printed as Pal-KTKKTLRTGCRFGTCTVQKLAHQIYQFTDKDKDNVAPVDPSSPHSY-NH2; ends and bridges not checked
EC50 (nM), CLR/RAMP2 arrestin assay (CLR/RAMP2 receptor): 1 nM
EC50 (nM), CLR/RAMP1 cAMP assay (CLR/RAMP1 receptor): 2 nM

Ac-TK(Palmitoyl)KTLRTGCRFGTCTVQKLAHQIYQFTDKDKDNSAPVDPSSPHSY-NH2 (ends and bridges not checked) [SEQ ID NO: 39]
EC50 (nM), CLR/RAMP2 arrestin assay (CLR/RAMP2 receptor): 0.5 nM
EC50 (nM), CLR/RAMP1 cAMP assay (CLR/RAMP1 receptor): 0.2 nM

Ac-VGCRFGTCTVQKLAHQIYQFTPAGRQDSAPVDPSSPHSY-NH2 (ends and bridges not checked) [SEQ ID NO: 57]
EC50 (nM), CLR/RAMP2 arrestin assay (CLR/RAMP2 receptor): 149 nM
EC50 (nM), CLR/RAMP1 cAMP assay (CLR/RAMP1 receptor): 909 nM

Ac-KGCRFGTCTVQKLAHQIYQFTDKDKDNVAPVDPSSPHSY-NH2 (ends and bridges not checked) [SEQ ID NO: 60]
EC50 (nM), CLR/RAMP2 arrestin assay (CLR/RAMP2 receptor): 3 nM
EC50 (nM), CLR/RAMP1 cAMP assay (CLR/RAMP1 receptor): 16 nM

Palmitoyl-KGCRFGTCTVQKLAHQIYQFTDKDKDNVAPVDPSSPHSY-NH2 (ends and bridges not checked) [SEQ ID NO: 34]
EC50 (nM), CLR/RAMP2 arrestin assay (CLR/RAMP2 receptor): 0.7 nM
EC50 (nM), CLR/RAMP1 cAMP assay (CLR/RAMP1 receptor): 0.2 nM

Ac-K(Palmitoyl)GCRFGTCTVQKLAHQIYQFTDKDKDNVAPRSKSSPHSY-NH2 (ends and bridges not checked) [SEQ ID NO: 65]
EC50 (nM), CLR/RAMP1 cAMP assay (CLR/RAMP1 receptor): 234 nM

Ac-K(Palmitoyl)GCRFGTCTVQKLAHQIYQFTPAGRQDSAPVDPSSPHSY-NH2 (ends and bridges not checked) [SEQ ID NO: 33]
EC50 (nM), CLR/RAMP2 arrestin assay (CLR/RAMP2 receptor): 0.4 nM
EC50 (nM), CLR/RAMP1 cAMP assay (CLR/RAMP1 receptor): 0.3 nM

[AEEEA]K(Palmitoyl)GCRFGTCTVQKLAHQIYQFTDKDKDSAPVDPSSPHSY-NH2 (ends and bridges not checked) [SEQ ID NO: 46]
EC50 (nM), CLR/RAMP2 arrestin assay (CLR/RAMP2 receptor): 0.5 nM
Max Activity % of positive control, CLR/RAMP2 arrestin assay (CLR/RAMP2 receptor): 104 % of positive control

Ac-KGCRFGTCTVQKLAHQIYQFTDKDSAPVDPSSPHSY-NH2 (ends and bridges not checked) [SEQ ID NO: 93]
EC50 (nM), CLR/RAMP2 arrestin assay (CLR/RAMP2 receptor): 17 nM
EC50 (nM), CLR/RAMP1 cAMP assay (CLR/RAMP1 receptor): 771 nM

Ac-TK(Palmitoyl)KTLRTGCRFGTCTVQKLAHQIYQFTDKDKDNVAPVDPSSPHSY-NH2 (ends and bridges not checked) [SEQ ID NO: 41]
EC50 (nM), CLR/RAMP2 arrestin assay (CLR/RAMP2 receptor): 0.9 nM
EC50 (nM), CLR/RAMP1 cAMP assay (CLR/RAMP1 receptor): 0.4 nM

Ac-VGCRFGTCTVQKLAHQIYQFTDKDKDNSAPVDPSSPHSY-NH2 (ends and bridges not checked) [SEQ ID NO: 56]
EC50 (nM), CLR/RAMP2 arrestin assay (CLR/RAMP2 receptor): 17 nM
EC50 (nM), CLR/RAMP1 cAMP assay (CLR/RAMP1 receptor): 224 nM

miniPEG-K(Palmitoyl)TKKTLRTGCRFGTCTVQKLAHQIYQFTDKDKDNVAPRSKISPQGY-NH2 (ends and bridges not checked) [SEQ ID NO: 70]
Max Activity % of positive control, CLR/RAMP2 arrestin assay (CLR/RAMP2 receptor): 68 % of positive control
Max Activity % of positive control, CLR/RAMP1 cAMP assay (CLR/RAMP1 receptor): 69 % of positive control

Palmitoyl-KGCRFGTCTVQKLAHQIYQFTDKDKDNSAPVDPSSPHSY-NH2 (ends and bridges not checked) [SEQ ID NO: 30]
EC50 (nM), CLR/RAMP2 arrestin assay (CLR/RAMP2 receptor): 0.6 nM
EC50 (nM), CLR/RAMP1 cAMP assay (CLR/RAMP1 receptor): 0.4 nM

Ac-FGCRFGTCTVQKLAHQIYQFTDKDKDNVAPRSKISPQGY-NH2 (cysteine pairing not given here) [human ADM, SEQ ID NO: 53]
Max Activity % of positive control, CLR/RAMP2 arrestin assay (CLR/RAMP2 receptor): 102 % of positive control
Max Activity % of positive control, CLR/RAMP1 cAMP assay (CLR/RAMP1 receptor): 69 % of positive control

Palmitoyl-KGCRFGTCTVQKLAHQIYQFTDKDKQDSAPVDPSSPHSY-NH2 (ends and bridges not checked) [SEQ ID NO: 35]
EC50 (nM), CLR/RAMP2 arrestin assay (CLR/RAMP2 receptor): 1 nM
EC50 (nM), CLR/RAMP1 cAMP assay (CLR/RAMP1 receptor): 0.8 nM

[AEEEA]K(Palmitoyl)GCRFGTCTVQKLAHQIYQFTDKDKQDSAPVDPSSPHSY-NH2 (ends and bridges not checked) [SEQ ID NO: 51]
EC50 (nM), CLR/RAMP2 arrestin assay (CLR/RAMP2 receptor): 0.3 nM

Palmitoyl-KGCRFGTCTVQKLAHQIYQFTDKGRQDSAPVDPSSPHSY-NH2 (ends and bridges not checked) [SEQ ID NO: 36]
EC50 (nM), CLR/RAMP2 arrestin assay (CLR/RAMP2 receptor): 0.9 nM
EC50 (nM), CLR/RAMP1 cAMP assay (CLR/RAMP1 receptor): 0.6 nM

miniPEG-TK(Palmitoyl)KTLRTGCRFGTCTVQKLAHQIYQFTDKDKDNVAPVDPSSPHSY-NH2 (cysteine pairing not given here) [SEQ ID NO: 42]
EC50 (nM), CLR/RAMP2 arrestin assay (CLR/RAMP2 receptor): 0.2 nM

[AEEEA]K(Palmitoyl)GCRFGTCTVQKLAHLWQLMGPAGRQDSAPVDPSSPHSY-NH2 (ends and bridges not checked) [SEQ ID NO: 62]
Max Activity % of positive control, CLR/RAMP1 cAMP assay (CLR/RAMP1 receptor): 2 % of positive control
